Source: patent US20190062453A1 (Hoffmann-La Roche, published 2019)

What was measured:
[1] = target: T1, murine DR5 ECD-AcTev-hu Fc-Avi (murine, UniProt Q9QZM4 53-153); experiment: binding ELISA
T1 construct: range 53-153; also called mouse DR5

Recombinant human DR4-Fc [2] = target: T2, Recombinant human DR4-Fc (human, UniProt O00220 109-239); experiment: binding ELISA
T2 construct: bought; also called huDR4Fc; human DR4 (TNFRSF10A); Fc part of the bought chimera not given

[3] = target: T3, Recombinant human DcR1-Fc (human, UniProt O14798 26-221); experiment: binding ELISA
T3 construct: bought; also called huDcR1Fc; human DcR1 (TNFRSF10C); Fc part of the bought chimera not given
T3 sequence (looked up): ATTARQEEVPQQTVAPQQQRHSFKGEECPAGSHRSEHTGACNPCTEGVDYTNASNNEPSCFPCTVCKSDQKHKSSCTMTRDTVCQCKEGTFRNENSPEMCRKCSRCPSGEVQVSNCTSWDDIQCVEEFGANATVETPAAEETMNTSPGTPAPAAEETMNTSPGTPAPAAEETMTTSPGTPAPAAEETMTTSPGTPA

[4] = target: T4, Recombinant human DcR2-Fc (human, UniProt Q9UBN6 56-211); experiment: binding ELISA
T4 construct: bought for the phage antibodies; also called huDcR2Fc; human DcR2 (TNFRSF10D); not shown: Fc part of the chimera
T4 sequence (looked up): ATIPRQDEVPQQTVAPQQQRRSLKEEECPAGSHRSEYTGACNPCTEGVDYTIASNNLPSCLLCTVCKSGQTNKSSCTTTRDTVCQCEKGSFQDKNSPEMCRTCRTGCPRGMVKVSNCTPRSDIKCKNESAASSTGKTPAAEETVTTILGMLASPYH

Recombinant human OPG-Fc [5] = target: T5, Recombinant human OPG-Fc (human, UniProt O00300 22-194); experiment: binding ELISA
T5 construct: bought; also called rhuOPGFc; human Osteoprotegerin; Fc part of the bought chimera not given
T5 sequence (looked up): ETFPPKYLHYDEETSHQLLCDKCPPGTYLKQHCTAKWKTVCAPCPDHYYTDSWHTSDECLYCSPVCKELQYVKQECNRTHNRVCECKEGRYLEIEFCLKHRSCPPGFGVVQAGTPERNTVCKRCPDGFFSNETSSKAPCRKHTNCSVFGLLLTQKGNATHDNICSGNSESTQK

[6] = target: T6, human DR5 (monomeric Fc fusion) (human, UniProt O14763 56-207, biotinylated at the Avi tag in the ELISA (the tag is not in the letters)); experiment: biochemical ELISA, biotinylated antigen on streptavidin plate
T6 construct: biotinylated in the ELISA; also called ECD-AcTev-hu Fc knob-Avi; not shown: AcTev site, hu Fc knob and Avi part of the fusion chain, and the separate Fc-hole chain

[7] = target: T7, Cynom. DR5 (ECD)-AcTev-Fc-Avi (cynomolgus); experiment: as above
T7 construct: also called cynomolgus DR5; cy DR5
Method: Antigen binding immunoassays were performed at room temperature on 384 well streptavidin coated microtiter plates (MicroCoat Biotechnologie GmbH) with PBS buffer supplemented with 0.05% Tween®-20 and 0.5% BSA (Roche Diagnostics GmbH). […] After 90 min incubation the plate was washed 6 times with PBST (phosphate buffered saline with 0.2% Tween®-20) and developed with BM Blue® HRP substrate solution (BM Blue®: 3,3′-5,5′-Tetramethylbenzidine, Roche Diagnostics GmbH) for 30 minutes at RT. Absorbance was measured at 370 nm. The blank value was defined without addition of supernatant.

human DR5 ECD-Avi-his = target: T8, human DR5 ECD-Avi-his (human, UniProt O14763 56-207); experiment: SPR, rabbit IgG captured by anti rabbit, monomeric DR5 injected
T8 construct: also called recombinant human DR5 (monomeric His-Avi fusion protein); monomeric human DR5
Method: The sample and system buffer was PBS-T (10 mM phosphate buffered saline including 0.05% Tween20) pH 7.4. The flow cell was set to 25° C.—and the sample block set to 12° C.—and primed with running buffer twice.
The dissociation phase was monitored for up to 300 sec and triggered by switching from the sample solution to running buffer. The surface was regenerated by 60 sec washing with a 100 mM H3PO4 (phosphoric acid) solution at a flow rate of 30 μl/min. Bulk refractive index differences were corrected by subtracting the response obtained from a blank surface. Buffer injections are also subtracted (=double referencing). For calculation of KD and other kinetic parameters the Langmuir 1:1 model was used.

Recombinant human DR4-Fc [8] = target: T2, Recombinant human DR4-Fc; experiment: SPR, receptor-Fc on CM5 chip
[9] = target: T3, Recombinant human DcR1-Fc; experiment: SPR, receptor-Fc on CM5 chip
[10] = target: T4, Recombinant human DcR2-Fc; experiment: SPR, receptor-Fc on CM5 chip
Recombinant human OPG-Fc [11] = target: T5, Recombinant human OPG-Fc; experiment: SPR, receptor-Fc on CM5 chip
[12] = target: T1, murine DR5 ECD-AcTev-hu Fc-Avi; experiment: SPR, biotinylated DR5 on SA chip
[13] = target: T9, Human FAP ectodomain + poly-lys-tag + his6-tag (human, UniProt Q12884 27-760); experiment: SPR (Biacore), bispecific antibody bound to immobilised human DR5-Fc, recombinant human FAP as second analyte (simultaneous binding)
T9 construct: also called recombinant soluble human FAP; hFAP
Method: (§1) The dissociation was monitored for 60 s. The flow rate for all steps was 30 μl/min.

[14] = target: T10, Murine FAP ectodomain + poly-lys-tag + his6-tag (murine, UniProt P97321 27-761); experiment: SPR (Biacore), bispecific antibody bound to immobilised human DR5-Fc, recombinant murine FAP as second analyte (simultaneous binding)
T10 construct: also called recombinant soluble murine FAP
T10 sequence (P97321 other isoform, or with tags, fused parts or gaps): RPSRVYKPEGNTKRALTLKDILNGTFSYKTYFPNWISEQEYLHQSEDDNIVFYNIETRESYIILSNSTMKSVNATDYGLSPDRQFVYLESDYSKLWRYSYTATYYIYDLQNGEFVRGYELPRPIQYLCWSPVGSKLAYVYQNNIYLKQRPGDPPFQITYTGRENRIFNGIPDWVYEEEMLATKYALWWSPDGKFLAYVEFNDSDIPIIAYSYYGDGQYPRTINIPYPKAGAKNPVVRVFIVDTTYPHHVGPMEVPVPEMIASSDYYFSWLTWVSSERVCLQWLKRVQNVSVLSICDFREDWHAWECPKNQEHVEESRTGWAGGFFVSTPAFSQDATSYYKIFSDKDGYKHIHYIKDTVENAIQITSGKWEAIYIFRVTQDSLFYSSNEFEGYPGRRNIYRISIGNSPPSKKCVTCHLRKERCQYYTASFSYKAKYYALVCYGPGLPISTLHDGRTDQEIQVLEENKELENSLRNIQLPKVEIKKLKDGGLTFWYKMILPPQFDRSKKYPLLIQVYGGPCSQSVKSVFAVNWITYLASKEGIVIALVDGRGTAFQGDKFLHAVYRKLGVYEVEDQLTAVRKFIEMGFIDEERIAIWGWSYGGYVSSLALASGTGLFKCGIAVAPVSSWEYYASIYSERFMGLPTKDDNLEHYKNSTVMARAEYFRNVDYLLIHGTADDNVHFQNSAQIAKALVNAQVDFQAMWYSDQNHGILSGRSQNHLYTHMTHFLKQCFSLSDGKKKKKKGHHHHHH
Method: as §1

B1: DR5TAA-0011 (antibody, V domains shown)
VH: QSVEESGGRLVTPGTPLTLTCTVSGFSISRYAMIWVRQAPGEGLEYIGFITSDSSAYYASWAKGRFTISKTSTTVDLKMTSPTTEDTATYFCARYTYSDGTDLWGPGTLVTVSS
VL: DIVMTQTPASVSEPVGGTVTIKCQASQSISTYLSWYQQKPGQPPKRLIYKASTLASGVPSRFKGSGSGTDFTLTIRDLECADAATYYCQPNSGIATYGAAFGGGTEVVVKG
notes: also called 174; clone 174
binding result [1]: no binding | binding result (Recombinant human DR4-Fc [2]): no binding | binding result [3]: no binding | binding result [4]: no binding | binding result (Recombinant human OPG-Fc [5]): no binding | EC50 [6]: 2 ng/mL | EC50 [7]: 4.3 ng/mL | Kd (human DR5 ECD-Avi-his): 4.24 nM

B2: 5E11 (antibody, V domains shown)
VH: not shown
VL: EIVLTQSPGTLSLSPGERATLSCRASQSVSSSYLAWYQQKPGQAPRLLIYGASSRATGIPDRFSGSGSGTDFTLTISRLEPEDFAVYYCQQGTTHPITFGQGTKVEIK
notes: Phage display Fab converted into hu IgG1, kappa light chain; also called clone 5E11
binding result (Recombinant human DR4-Fc [8]): no binding (tested: 500, 100 and 25 nM) | binding result [9]: no binding (tested: 500, 100 and 25 nM) | binding result [10]: no binding (tested: 500, 100 and 25 nM) | binding result (Recombinant human OPG-Fc [11]): no binding (tested: 500, 100 and 25 nM) | binding result [12]: no binding (tested: 500, 100 and 25 nM)

B3: DR5TAA-0010 (antibody, V domains shown)
VH: QSLEESGGRLVKPDETLTLTCTVSGFSLSSNAISWVRQAPGMGLEWIGIIGSSGYTYYASWAKGRFTVSKTSTTVDLEIASPTTEDTATYFCARGYSGASDYSFNLWGPGTLVTVSS
VL: AYDMTQTPDSVEVAVGGTVTIKCQASQTIGDALAWYQQKPGQRPNLLIYRTSTLASGVPSRFSGSGSGTHFTLTISGVECADAATYYCQQGATYNNVLNTFGGGTEVVVKG
notes: rabbit IgG; also called 481; clone 481
binding result [1]: no binding | binding result (Recombinant human DR4-Fc [2]): no binding | binding result [3]: no binding | binding result [4]: no binding | binding result (Recombinant human OPG-Fc [5]): no binding | EC50 [6]: 2.8 ng/mL | EC50 [7]: 8.7 ng/mL | Kd (human DR5 ECD-Avi-his): 15.9 nM

B4: DR5TAA-0005 (antibody, V domains shown)
VH: QSLEESGGRLVTPGTPLTLTCTASGFSLSSAYMSWVRQAPGKGLEWIGYIYSGSGSTWYASWVKGRFTISKTSTTVDLKITSPTTEDTATYFCARGYSTMGDLWGPGTLVTVSS
VL: QVLTQTPSPVSAAVGGTVTINCQASQSVYNNRLAWYQQKPGQPPKLLIYLASTLASGVPSRFKGSGSGTQFTLTISDLQCDDAATYYCAGGYSGNINAFGGGTEVVVKG
notes: rabbit IgG; also called 039; clone 039
binding result [1]: no binding | binding result (Recombinant human DR4-Fc [2]): no binding | binding result [3]: no binding | binding result [4]: no binding | binding result (Recombinant human OPG-Fc [5]): no binding | EC50 [6]: 2.5 ng/mL | EC50 [7]: 3.7 ng/mL | Kd (human DR5 ECD-Avi-his): 13.3 nM

B5: DR5TAA-0019 (antibody, V domains shown)
VH: QSVEESGGRLVTPGTPLTLTCTVSGFSLSNYAMSWVRQAPGKGLEWIGIISSSGTTYYASWAKGRFTISKTSTTVDLKVTSPTTEDTATYFCARETYYGYSYAAGLWGPGTLVTVSS
VL: ALVMTQTPSSVSAAVGGTVTINCQASQNIYSNLAWFQQKPGQPPKLLIYETSKLASGVPSRFSGSGSGTEFTLTISDLECDDAATYYCQSSWHSISTDCAFGGGTEVVVKG
notes: rabbit IgG
binding result [1]: no binding | binding result (Recombinant human DR4-Fc [2]): no binding | binding result [3]: no binding | binding result [4]: no binding | binding result (Recombinant human OPG-Fc [5]): no binding | EC50 [6]: 3.5 ng/mL | EC50 [7]: 2.2 ng/mL | Kd (human DR5 ECD-Avi-his): 0.675 nM

B6: DR5TAA-0006 (antibody, V domains shown)
VH: QSLEESGGRLVTPGTPLTLTCTASGFSLSSNHMSWVRQAPGKGLEWIGYIYAGSGSAYYASWAKGRFTISRTSTTVDLKMTSLTTEDTATYFCAGDAGSSYWEFNLWGPGTLVTVSS
VL: LVMTQTPSSTSEPVGGTVTIKCQASQSIGSSLSWYQQKPGQPPKLLIYHASTLASGVPSRFSGSRSGIQTTLTISGVQCDDAATYYCLGVADARRDDGFAFGGGTEVVVKG
notes: rabbit IgG; also called 058; clone 058
binding result [1]: no binding | binding result (Recombinant human DR4-Fc [2]): no binding | binding result [3]: no binding | binding result [4]: no binding | binding result (Recombinant human OPG-Fc [5]): no binding | EC50 [6]: 2 ng/mL | EC50 [7]: 1.6 ng/mL | Kd (human DR5 ECD-Avi-his): 5.92 nM

B7: DR5TAA-0013 (antibody, V domains shown)
VH: QSLEESGGRLVTPGTPLTLTCTASGFTISSYHMSWVRQAPGKGLEWIGYIYAGSASTWYASWVKGRFTISKTSTTVDLKMTSLTTEDTATYFCARDAGSSYWEFNLWGPGTLVTVSS
VL: LVMTQTPSSTSEPVGGTVTIKCQASQSIGSSLSWYQQTPGQPPKLLIYTASSLASSVPKRFSGSRSGTQFTLTISGVQCADAATYYCLGIDDVRRDDGFAFGGGTEVVVKG
notes: rabbit IgG; also called 298; clone 298
binding result [1]: no binding | binding result (Recombinant human DR4-Fc [2]): no binding | binding result [3]: no binding | binding result [4]: no binding | binding result (Recombinant human OPG-Fc [5]): no binding | EC50 [6]: 2.1 ng/mL | EC50 [7]: 2.1 ng/mL | Kd (human DR5 ECD-Avi-his): 9.12 nM

B8: DR5TAA-0034 (bispecific antibody, human IgG1, kappa)
HC (DR5-crossed FAP): not shown
LC (DR5): ALVMTQTPSSTSEPVGGTVTIKCQASQSIGSSLSWYQQTPGQPPKLLIYTASSLASSVPKRFSGSRSGTQFTLTISGVQCADAATYYCLGIDDVRRDDGFAFGGGTEVVVKRTVAAPSVFIFPPSDEQLKSGTASVVCLLNNFYPREAKVQWKVDNALQSGNSQESVTEQDSKDSTYSLSSTLTLSKADYEKHKVYACEVTHQGLSSPVTKSFNRGEC
Crossed LC (FAP): EIVLTQSPGTLSLSPGERATLSCRASQSVSRSYLAWYQQKPGQAPRLLIIGASTRATGIPDRFSGSGSGTDFTLTISRLEPEDFAVYYCQQGQVIPPTFGQGTKVEIKSSASTKGPSVFPLAPSSKSTSGGTAALGCLVKDYFPEPVTVSWNSGALTSGVHTFPAVLQSSGLYSLSSVVTVPSSSLGTQTYICNVNHKPSNTKVDKKVEPKSCD
notes: also called 298-28H1
binding result [13]: binds | binding result [14]: binds

B9: DR5TAA-0036 (bispecific antibody, human IgG1, kappa)
HC (DR5-crossed FAP): not shown
LC (DR5): ALVMTQTPSSVSAAVGGTVTINCQASQNIYSNLAWFQQKPGQPPKLLIYETSKLASGVPSRFSGSGSGTEFTLTISDLECDDAATYYCQSSWHSISTDCAFGGGTEVVVKRTVAAPSVFIFPPSDEQLKSGTASVVCLLNNFYPREAKVQWKVDNALQSGNSQESVTEQDSKDSTYSLSSTLTLSKADYEKHKVYACEVTHQGLSSPVTKSFNRGEC
Crossed LC (FAP): EIVLTQSPGTLSLSPGERATLSCRASQSVSRSYLAWYQQKPGQAPRLLIIGASTRATGIPDRFSGSGSGTDFTLTISRLEPEDFAVYYCQQGQVIPPTFGQGTKVEIKSSASTKGPSVFPLAPSSKSTSGGTAALGCLVKDYFPEPVTVSWNSGALTSGVHTFPAVLQSSGLYSLSSVVTVPSSSLGTQTYICNVNHKPSNTKVDKKVEPKSCD
binding result [13]: binds | binding result [14]: binds

B10: DR5TAA-0016 (antibody, V domains shown)
VH: QSLEESGGRLVKPDETLTLTCTVSGFSLNNYAMSWVRQAPGKGLEWIGMINKYGTKYYATWTKGRATISKTSTTLDLEITSPTTEDTATYFCARVRYAGDDYAEWLDVWGQGILVTVSS
VL: DIVMTQTASPVSAAVGGTVTINCQASQSISSSYVSWYQQKPGQPPKLLIYKASTLASGVPSRFSGSGSGTQLSLTIRGVQCDDAATYYCLYGYSDVSSSEYVFGGGTEVVVRG
binding result [1]: no binding | binding result (Recombinant human DR4-Fc [2]): no binding | binding result [3]: no binding | binding result [4]: no binding | binding result (Recombinant human OPG-Fc [5]): no binding | EC50 [6]: 4 ng/mL | EC50 [7]: 2.7 ng/mL | Kd (human DR5 ECD-Avi-his): 1.45 nM
